B1: recombinant human TNFβ (ligand, UniProt P01374 35-205, looked up)
chain: LPGVGLTPSAAQTARQHPKMHLAHSTLKPAAHLIGDPSKQNSLLWRANTDRAFLQDGFSLSNNSLLVPTSGIYFVYSQVVFSGKAYSPKATSSPLYLAHEVQLFSSQYPFHVPLLSSQKMVYPGLQEPWLHSMYHGAAFQLTQGDQLSTHTDGIPHLVLSPSTVFFGAFAL
B2: humanized scFv 16-02-B03-sc02 (scFv)
scFv: MDIQMTQSPSSLSASVGDRVTITCQSSQSVYSSNLAWYQQKPGKAPKLLIYSASKLASGVPSRFSGSGSGTDFTLTISSLQPEDEATYYCQGTYYTSNWLNAFGGGTKLTVLGGGGGSGGGGSGGGGSGGGGSEVQLVESGGGLVQPGGSLRLSCAASGIDLSSYAMGWVRQAPGKGLEWIGTISVGGSTYYANWAEGRFTISRDNSKNTVYLQMNSLRAEDTAVYYCAGGDYINFFYFNIWGQGTLVTVSS
notes: CDR graft on a Vκ1/VH3 scaffold; also called 16-02-B03-sc02 (CDR); 16-02-B03-sc02-scFv

Key:
[1] = target: B2; experiment: competition ELISA: scFv coated, biotinylated TNFα 75 ng/mL, unlabeled TNFβ as competitor
Description: (§1) The quality of recombinant human TNFβ has been analyzed 1) for purity by SDS-page and HPLC analysis, and 2) for biological activity in the mouse L929 cytotoxicity assay, by the manufacturer of the protein.

[2] = target: B2; experiment: competition ELISA: scFv coated, biotinylated TNFα, unlabeled TNFβ or TNFα as competitor
Description: as §1

[3] = target: B1; experiment: competition ELISA: scFv coated, biotinylated TNFα, unlabeled TNFβ as competitor
Method: To control precision of the response, the dose-response curves was analyzed in duplicate.

[4] = target: T1, recombinant human TNFα (human, UniProt P01375 77-233); experiment: SPR (MASS-1); TNFα amine-coupled on chip, scFv injected 45-1.4 nM
T1 construct: also called TNFα trimer; biotinylated TNFα
T1 sequence (P01375 77-233 limits assumed): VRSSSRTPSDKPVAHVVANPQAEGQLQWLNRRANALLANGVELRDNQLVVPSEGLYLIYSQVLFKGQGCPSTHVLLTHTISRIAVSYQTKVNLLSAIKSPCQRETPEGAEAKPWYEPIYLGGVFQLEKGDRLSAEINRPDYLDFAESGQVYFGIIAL
Method: (§2) In a second step, Single Injection Cycle Kinetics (SiCK) were measured from a single injection cycle by simultaneously injecting six analyte samples at different concentrations into each of the eight parallel channels in the MASS-1 system. […] The apparent dissociation (kd) and association (kₐ) rate constants and the apparent dissociation equilibrium constant (KD) were calculated with the MASS-1 analysis software (Analyzer, Sierra Sensors) using one-to-one Langmuir binding model and quality of the fits was monitored based on Chi², which is a measure for the quality of the curve fitting. The smaller the value for the Chi² the more accurate is the fitting to the one-to-one Langmuir binding model. For affinity screenings, results were deemed valid if the Chi² was below 10 for the concentration analyzed. In cases where several scFv concentrations were analyzed, results were deemed valid if the average Chi² over all the concentrations tested was below 10.

[5] = target: T2, Rhesus monkey TNFα (Rhesus monkey (Macaca mulatta), UniProt P48094 77-233); experiment: as above
T2 construct: also called Rhesus TNFα; Macaca mulatta TNFα
T2 sequence (P48094 77-233 limits assumed): as the sequence (P01375 77-233 limits assumed) above, with R44T, T72N, R138L counted along it
Method: as §2

[6] = target: T3, recombinant Cynomolgus monkey TNFα (Cynomolgus monkey (Macaca fascicularis), UniProt P79337 77-233); experiment: as above
T3 construct: also called Cynomolgus TNFα; Cyno TNFα
T3 sequence (P79337 77-233 limits assumed): as the sequence (P01375 77-233 limits assumed) above, with L37V, R44T, T72N, R138L counted along it
Method: as §2

[7] = target: T1, recombinant human TNFα; experiment: cell-based or functional assay
[8] = target: T2, Rhesus monkey TNFα; experiment: cell-based or functional assay
[9] = target: T3, recombinant Cynomolgus monkey TNFα; experiment: cell-based or functional assay
[10] = target: T1, recombinant human TNFα; experiment: inhibition ELISA; biotinylated TNFα 960 pM pre-incubated with scFv; competitor TNFRI-Fc coated
[11] = target: T1, recombinant human TNFα; experiment: inhibition ELISA; biotinylated TNFα 960 pM pre-incubated with scFv; competitor TNFRII-Fc coated
Method: For the second inhibition ELISA, the extracellular domain of TNFRII fused to the Fc region of human IgG (R&D Systems, Cat. No. 726-R2) was coated at a concentration of 2 μg/mL. All subsequent steps were identical for both assays.

| Binder | IC50 [1] | Target selectivity, rel. IC50 of TNFβ vs TNFα [2] | binding result [3] | Kd [4] | koff [4] | kon [4] | Kd [5] | koff [5] | kon [5] | Kd [6] | koff [6] | kon [6] | Potency (L929 assay), rel. IC50 (IC50,Infliximab/IC50,scFv, ng/mL) [7] | Species-specificity IC50 [ng/mL], human (L929 assay) [7] | Species-specificity IC50 [ng/mL], rhesus (L929 assay) [8] | Species-specificity IC50 [ng/mL], cyno (L929 assay) [9] | IC50 [10] | IC50 [11] |
| --- | --- | --- | --- | --- | --- | --- | --- | --- | --- | --- | --- | --- | --- | --- | --- | --- | --- | --- |
| B1 | > 1250 µg/mL | > 10000 fold |  |  |  |  |  |  |  |  |  |  |  |  |  |  |  |  |
| B2 |  |  | no binding (tested: 1250 µg/mL) | 0.16 nM | 6.6e-05 s⁻¹ | 410000 M⁻¹ s⁻¹ | 1.6 nM | 0.00022 s⁻¹ | 130000 M⁻¹ s⁻¹ | 1.1 nM | 0.00021 s⁻¹ | 180000 M⁻¹ s⁻¹ | 1.7 | 6.9 ng/mL | 71.8 ng/mL | 99.3 ng/mL | 0.0737 µg/mL | 0.0795 µg/mL |

Source: patent US20190194310A1 (NUMAB INNOVATION, published 2019)
